Reference: PMC9812531 (Nature structural & molecular biology, 2021)
Where two headings read alike, the source gives them in different places.

Tests used:
Experiment in all cases: cryo-EM structure
cryo-EM structure [1] = target: the molecule itself
human SPTLC2 = target: T1, human SPTLC2 (human, UniProt O15270 1-562, pyridoxal 5'-phosphate (PLP) in aldimine linkage to Lys379)
T1 sequence (looked up): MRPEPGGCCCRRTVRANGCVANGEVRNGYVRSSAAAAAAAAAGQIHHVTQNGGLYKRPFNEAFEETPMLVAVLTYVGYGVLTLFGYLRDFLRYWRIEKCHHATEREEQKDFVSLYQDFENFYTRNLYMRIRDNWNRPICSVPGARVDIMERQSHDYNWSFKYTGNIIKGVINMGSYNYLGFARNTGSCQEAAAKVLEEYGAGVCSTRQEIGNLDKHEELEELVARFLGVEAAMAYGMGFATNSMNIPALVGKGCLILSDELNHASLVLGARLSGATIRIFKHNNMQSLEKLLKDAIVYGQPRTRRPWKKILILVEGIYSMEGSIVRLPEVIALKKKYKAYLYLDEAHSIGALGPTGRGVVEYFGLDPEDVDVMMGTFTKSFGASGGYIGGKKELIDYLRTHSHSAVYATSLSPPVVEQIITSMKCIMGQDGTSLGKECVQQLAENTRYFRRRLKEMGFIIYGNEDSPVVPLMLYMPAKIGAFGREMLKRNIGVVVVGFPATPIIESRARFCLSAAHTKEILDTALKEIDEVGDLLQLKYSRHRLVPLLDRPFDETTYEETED

cryo-EM structure [2] = target: the molecule itself; remark: listed apart in the source

B1: human SPTLC1 (natural protein)
chain: MATATEQWVLVEMVQALYEAPAYHLILEGILILWIIRLLFSKTYKLQERSDLTVKEKEELIEEWQPEPLVPPVPKDHPALNYNIVSGPPSHKTVVNGKECINFASFNFLGLLDNPRVKAAALASLKKYGVGTCGPRGFYGTFDVHLDLEDRLAKFMKTEEAIIYSYGFATIASAIPAYSKRGDIVFVDRAACFAIQKGLQASRSDIKLFKHNDMADLERLLKEQEIEDQKNPRKARVTRRFIVVEGLYMNTGTICPLPELVKLKYKYKARIFLEESLSFGVLGEHGRGVTEHYGINIDDIDLISANMENALASIGGFCCGRSFVIDHQRLSGQGYCFSASLPPLLAAAAIEALNIMEENPGIFAVLKEKCGQIHKALQGISGLKVVGESLSPAFHLQLEESTGSREQDVRLLQEIVDQCMNRSIALTQARYLEKEEKCLPPPSIRVVVTVEQTEEELERAASTIKEVAQAVLL
binding result (cryo-EM structure [1]): binds | stoichiometry N (human SPTLC2): 1

B2: human SPT-ORMDL3 complex (SPTLC1-SPTLC2-ssSPTa-ORMDL3), one protomer (complex)
chain 1: B1 chain
chain 2: T1 sequence (looked up)
chain 3: MAGMALARAWKQMSWFYYQYLLVTALYMLEPWERTVFNSMLVSIVGMALYTGYVFMPQHIMAILHYFEIVQ
chain 4: MNVGTAHSEVNPNTRVMNSRGIWLSYVLAIGLLHIVLLSIPFVSVPVVWTLTNLIHNMGMYIFLHTVKGTPFETPDQGKARLLTHWEQMDYGVQFTASRKFLTITPIVLYFLTSFYTKYDQIHFVLNTVSLMSVLIPKLPQLHGVRIFGINKY
modifications: pyridoxal 5'-phosphate (PLP) in aldimine linkage to Lys379
stoichiometry N (cryo-EM structure [1]): 2

B3: human ssSPTa (natural protein)
chain: B2 chain 3
stoichiometry N (human SPTLC2): 1

B4: human SPT complex (SPTLC1-SPTLC2-ssSPTa), one protomer (complex)
chain 1: B1 chain
chain 2: T1 sequence (looked up)
chain 3: B2 chain 3
modifications: pyridoxal 5'-phosphate (PLP) in aldimine linkage to Lys379
stoichiometry N (cryo-EM structure [2]): 2
